Here are results for one molecule from patent publication US20250154271A1 (published 2025).

One assay deals with T1, canine NGF (canine, UniProt Q29074 110-229 (pig entry), limits assumed).
T1 construct: also called cNGF; canine β-NGF
T1 chain: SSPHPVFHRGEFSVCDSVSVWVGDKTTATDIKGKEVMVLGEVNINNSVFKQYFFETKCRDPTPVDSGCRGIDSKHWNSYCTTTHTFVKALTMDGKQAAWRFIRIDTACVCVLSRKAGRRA
The assay can be described thus: SPR Biacore, NGF amine-coupled to chip. The procedure:
(§1) Antibody binding affinities of the antibodies against canine NGF were determined by surface plasmon resonance (SPR) on a Biacore system (Biocore Life Sciences (GE Healthcare), Uppsala, Sweden). Immobilization of canine and rat NGF were obtained by amine coupling 5 μg/mL NGF using N-hydroxysuccinimide (NHS)/1-Ethyl-3-(3-dimethylaminopropyl) carbodiimide (EDC) chemistry. Chips were quenched with ethanolamine and the affinity with which all candidate mAbs bound to the immobilized NGF was evaluated. Various concentrations of canine and felinized anti-NGF antibodies were injected over the NGF surfaces while the association of the antibody to the antigen and the dissociation of the formed complex were monitored in real time. Kinetic analysis was performed to obtain the equilibrium dissociation constant (KD).

The next assay addresses T2, rat NGF (rat, UniProt P25427 122-241).
T2 construct: Immobilised on the Biacore chip by amine coupling; also called rN
Put plainly: SPR Biacore, NGF amine-coupled to chip. The method, then: as §1

T2 sequence (P25427 122-241 limits assumed): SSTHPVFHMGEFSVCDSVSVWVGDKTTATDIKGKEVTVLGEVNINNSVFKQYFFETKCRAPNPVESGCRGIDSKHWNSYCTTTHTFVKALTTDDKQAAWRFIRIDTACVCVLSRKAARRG

B1: fel48L2 chimera (antibody, V domains shown)
VH: EVQLVESGGDLVKPGGSLRLSCVASGFTFSTYGINWVRQAPGKGLQWVAYISSGGSSTYYADPVKGRFTISRDDAKNMLYLQMNSLRAEDTAIYYCAGSRYTYAYGGGYEFHFWGQGTLVTVSS
VL: QAVLNQPASVSGALGQKVTISCSGSTMDIDIFGVSWYQQLPGKAPKLLVDSDGDRPSGIPDRFSGSRSGNSGTLTITGLQAEDEADYHCQSGDSTLGALAIFGGGTHVTVLG
notes: Canine variable domains on feline constant regions
In the assay with canine NGF, B1 displayed a Kd of 6.25 pM, an off-rate constant (koff) of 2.64e-06 s⁻¹ and an on-rate (kon) of 471000 M⁻¹ s⁻¹. In the assay with rat NGF, this molecule had a dissociation constant (Kd) of 0.285 pM, a koff of 1.1e-07 s⁻¹ and a kon of 387000 M⁻¹ s⁻¹.
